Laboratory results from patent US20170281723A1 (OHIO STATE INNOVATION FOUNDATION, published 2017).
Starred links: 1 amine or outer side, 2 acyl side, 3 side chain; linkers in the order of their positions; H or OH if unused. Non-standard residues stand in square brackets, D forms with d. *: point of attachment. Cys(ΨMe,MePro) = 2,2-dimethyl-L-thiazolidine-4-carboxylic acid, cis-proline analog, CC1(C)SC[C@@H](C(=O)[*:2])N1[*:1]; F∗ = N-terminal 5(6)-SFX fluorescein label; Tle = CC(C)(C)[C@H](N)C(=O)O; NHPr = CCCN*

Assays:
[1] = biological target: Calcineurin (CN), purified as glutathione S-transferase fusion protein from Escherichia coli BL21 cells (UniProt Q08209); assay: FA competition, competitor FITC-ZIZIT (100 nM), CN 150 nM
[2] = biological target: Calcineurin (CN), purified as glutathione S-transferase fusion protein from Escherichia coli BL21 cells (UniProt Q08209); assay: fluorescence anisotropy, ratio of KD values against VIVIT
[3] = biological target: Calcineurin (CN), purified as glutathione S-transferase fusion protein from Escherichia coli BL21 cells (UniProt Q08209); assay: fluorescence anisotropy, N-terminal 5(6)-SFX labeled peptide (100 nM) titrated with CN
[4] = biological target: Calcineurin (CN), purified as glutathione S-transferase fusion protein from Escherichia coli BL21 cells (UniProt Q08209); assay: in vitro binding to CN, against ZIZIT
[5] = biological target: Calcineurin (CN), purified as glutathione S-transferase fusion protein from Escherichia coli BL21 cells (UniProt Q08209); assay: fluorescence anisotropy, ratio of KD values against ZIZIT
[6] = biological target: protein-tyrosine phosphatase SHP1 (UniProt P29350); assay: fluorescence anisotropy, FITC-labeled ZIZIT-cisPro 100 nM
Grb2 SH2 domain = biological target: T1, Grb2 SH2 domain (UniProt P62993 60-152, limits assumed); assay: as above
T1 construct: domain: SH2 domain; also called SH2 domain of Grb2
T1 sequence (P62993 60-152 limits assumed): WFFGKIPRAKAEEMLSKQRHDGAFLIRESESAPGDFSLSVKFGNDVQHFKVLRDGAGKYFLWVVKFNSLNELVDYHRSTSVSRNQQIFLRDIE

[7] = biological target: bovine serum albumin (BSA) (bovine, UniProt P02769 25-607); assay: as above
Chain of bovine serum albumin (BSA) (P02769 25-607 limits assumed): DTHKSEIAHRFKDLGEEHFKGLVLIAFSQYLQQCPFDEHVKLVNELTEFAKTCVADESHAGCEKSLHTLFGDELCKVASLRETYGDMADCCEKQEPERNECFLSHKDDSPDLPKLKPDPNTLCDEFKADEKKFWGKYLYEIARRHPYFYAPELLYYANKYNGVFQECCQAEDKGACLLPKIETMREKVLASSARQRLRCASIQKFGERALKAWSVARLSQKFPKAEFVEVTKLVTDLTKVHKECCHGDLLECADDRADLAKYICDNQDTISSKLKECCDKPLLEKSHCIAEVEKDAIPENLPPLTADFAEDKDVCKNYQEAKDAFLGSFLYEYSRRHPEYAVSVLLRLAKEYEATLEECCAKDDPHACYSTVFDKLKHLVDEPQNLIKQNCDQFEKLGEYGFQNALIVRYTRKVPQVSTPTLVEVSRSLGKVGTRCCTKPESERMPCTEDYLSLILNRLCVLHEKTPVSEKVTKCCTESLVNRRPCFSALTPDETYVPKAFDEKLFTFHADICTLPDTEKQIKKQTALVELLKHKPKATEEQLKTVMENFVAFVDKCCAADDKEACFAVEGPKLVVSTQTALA

Work on “unlabeled ZIZIT-cisPro peptide (GPHPZIZITG-Cys(Ψ^Me,MePro)-HEE)” yielded an IC50 [1] of 110 nM.

With “Fluorescein-labeled ZIZIT peptide (GPHPZIZITGPHEE, Z = tert-leucine)” the fold higher affinity than VIVIT [2] was 10 fold and the Kd [3] was 43 nM.

With “unlabeled ZIZIT peptide (GPHPZIZITGPHEE, Z = tert-leucine)” the IC50 [1] was 280 nM.

B1: F*-GPHPZIZITG-Cys(Ψ^Me,MePro)-HEEG-Propyl (F*-ZIZIT-cis), fluorescein-labeled ZIZIT-cisPro (peptide)
peptide: {F∗}-GPHP[Tle]I[Tle]ITG[Cys(ΨMe,MePro)]HEEG-NHPr
notes: also called FITC-labeled ZIZIT-cisPro
For B1, the fold more active than ZIZIT for binding [4] was 15 fold, the fold improvement of binding affinity over VIVIT [2] was 200 fold and the fold increase of binding affinity over ZIZIT [5] was 20 fold. For the same molecule, the Kd [6] was > 15000 nM, the binding result (Grb2 SH2 domain) was “no binding (tested: 15 µM)” and the binding result [7] was “no binding (tested: 15 µM)”. For the same molecule, the Kd [3] was 2.6 nM.

B2: F*-…-NH2 (F*-VAVAA), fluorescein-labeled negative control peptide (peptide)
peptide: {F∗}-GPHAVAVAAGPHEE-NH2
B2 was tested, and the Kd [3] was > 20000 nM.
